Assay results reported in article PMC11186766.

Legend:
[1] = biological target: full-length rat GluK2 kainate receptor (rat) (UniProt P42260); experiment: cryo-EM structure; time-resolved cryo-EM: purified GluK2 at 60 uM incubated with 500 uM BPAM344 for 20-30 min on ice, 90 uM succinylated concanavalin A added, 10 mM L-glutamate applied less than 3 s before plunge-freezing; 150 mM NaCl, 20 mM Tris-HCl pH 8.0, 0.05% digitonin
[2] = biological target: succinylated concanavalin A; experiment: as above

Substance | stoichiometry N [1] | stoichiometry N [2]
full-length rat GluK2 kainate receptor (from UniProt P42260 32-908) | 4 | 
succinylated concanavalin A (natural protein) |  | 2
